Assay results from patent publication US20240417476A1 (ATYR PHARMA, published 2024).
Ends that are not written are not given here.

T1: CCR7, full coding sequence, in pBiT1.1-C with C-terminal split NanoLuc tag, expressed in Expi293F cells (human, UniProt P32248 25-378)
T1 construct: cDNA Genscript OHu24012; not shown: vector-encoded spacer and large split NanoLuc fragment (pBiT1.1-C)
T1 sequence: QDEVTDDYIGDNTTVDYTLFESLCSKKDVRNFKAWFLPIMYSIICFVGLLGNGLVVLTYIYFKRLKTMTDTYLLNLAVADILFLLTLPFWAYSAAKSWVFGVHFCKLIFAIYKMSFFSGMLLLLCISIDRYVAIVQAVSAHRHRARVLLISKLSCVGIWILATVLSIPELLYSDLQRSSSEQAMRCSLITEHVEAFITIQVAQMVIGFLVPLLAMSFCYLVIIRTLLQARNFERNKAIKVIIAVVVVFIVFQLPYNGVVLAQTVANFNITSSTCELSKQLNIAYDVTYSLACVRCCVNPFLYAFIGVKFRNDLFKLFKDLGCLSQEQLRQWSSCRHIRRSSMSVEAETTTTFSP

T2: human NRP2b expressed on Expi293F cells (human)
T2 construct: also called full length NRP2b
T2 chain: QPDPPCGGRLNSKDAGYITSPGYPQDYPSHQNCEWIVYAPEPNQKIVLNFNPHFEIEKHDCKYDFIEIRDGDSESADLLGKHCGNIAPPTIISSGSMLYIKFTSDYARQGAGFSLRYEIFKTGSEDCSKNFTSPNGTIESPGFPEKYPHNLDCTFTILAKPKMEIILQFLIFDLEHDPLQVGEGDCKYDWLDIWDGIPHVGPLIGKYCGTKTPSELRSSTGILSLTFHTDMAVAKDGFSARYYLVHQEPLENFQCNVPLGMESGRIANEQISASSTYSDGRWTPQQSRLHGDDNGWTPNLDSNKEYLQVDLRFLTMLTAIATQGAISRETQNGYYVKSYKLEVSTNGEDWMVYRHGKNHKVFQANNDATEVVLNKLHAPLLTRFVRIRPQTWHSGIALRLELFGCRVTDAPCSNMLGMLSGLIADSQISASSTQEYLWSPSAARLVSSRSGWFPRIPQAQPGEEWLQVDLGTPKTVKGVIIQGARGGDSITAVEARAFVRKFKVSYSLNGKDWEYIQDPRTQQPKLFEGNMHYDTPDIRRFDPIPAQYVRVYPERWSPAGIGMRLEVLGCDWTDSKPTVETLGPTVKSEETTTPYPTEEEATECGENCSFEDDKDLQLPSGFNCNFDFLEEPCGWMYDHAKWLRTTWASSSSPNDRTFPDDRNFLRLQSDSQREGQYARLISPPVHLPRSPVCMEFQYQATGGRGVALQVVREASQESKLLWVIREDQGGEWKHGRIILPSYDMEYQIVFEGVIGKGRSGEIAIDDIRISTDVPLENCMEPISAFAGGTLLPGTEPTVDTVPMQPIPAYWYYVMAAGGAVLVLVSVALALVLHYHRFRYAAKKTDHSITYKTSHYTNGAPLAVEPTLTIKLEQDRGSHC

T3: NRP2b peptide (biotinylated) (human, biotin-conjugated, site not stated)
T3 construct: also called NRP2b isoform specific peptide
T3 peptide: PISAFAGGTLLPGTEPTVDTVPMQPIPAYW

T4: NRP2v3
T4 construct: not the NanoLuc-tagged construct m33; also called human NRP2 v3 expressed on Expi293F cells; NRP2a v3
T4 chain: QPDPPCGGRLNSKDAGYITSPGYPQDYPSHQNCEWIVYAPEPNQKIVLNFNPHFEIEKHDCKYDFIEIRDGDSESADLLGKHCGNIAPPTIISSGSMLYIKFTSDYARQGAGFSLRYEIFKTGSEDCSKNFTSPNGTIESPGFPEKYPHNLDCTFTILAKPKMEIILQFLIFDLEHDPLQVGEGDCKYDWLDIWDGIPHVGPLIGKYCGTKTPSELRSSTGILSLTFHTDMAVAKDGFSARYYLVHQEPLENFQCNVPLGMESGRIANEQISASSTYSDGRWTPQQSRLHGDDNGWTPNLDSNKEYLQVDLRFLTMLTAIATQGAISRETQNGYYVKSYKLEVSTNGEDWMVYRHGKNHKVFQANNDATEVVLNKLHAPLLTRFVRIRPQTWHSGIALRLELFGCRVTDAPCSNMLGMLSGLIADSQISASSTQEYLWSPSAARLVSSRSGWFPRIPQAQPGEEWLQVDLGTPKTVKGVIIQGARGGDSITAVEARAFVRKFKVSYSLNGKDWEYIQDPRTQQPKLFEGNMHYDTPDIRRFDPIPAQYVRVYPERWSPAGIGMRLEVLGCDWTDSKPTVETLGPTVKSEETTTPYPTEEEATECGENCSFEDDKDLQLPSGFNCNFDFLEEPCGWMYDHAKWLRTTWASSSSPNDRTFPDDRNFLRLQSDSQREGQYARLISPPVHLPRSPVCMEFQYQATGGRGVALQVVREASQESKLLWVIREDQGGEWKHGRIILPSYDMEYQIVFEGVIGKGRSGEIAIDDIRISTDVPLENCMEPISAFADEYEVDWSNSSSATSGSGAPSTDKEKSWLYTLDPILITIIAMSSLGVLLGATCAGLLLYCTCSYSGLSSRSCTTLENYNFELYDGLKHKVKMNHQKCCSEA

T5: NRP2a_scan 7 peptide (biotinylated) (human, also: biotin-conjugated, site not given here)
T5 peptide: EYEVDWSNSSSA

T6: NRP2a_scan 2 peptide (biotinylated) (human, also: biotin-conjugated, site not given here)
T6 peptide: PEIHEREGYEDE

T7: Mid-mNRP2A peptide (biotinylated) (mouse, biotin-conjugated, site not stated)
T7 peptide: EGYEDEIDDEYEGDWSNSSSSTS

T8: NRP2a_scan 6 peptide (biotinylated) (human, also: biotin-conjugated, site not given here)
T8 peptide: IDDEYEVDWSNS

T9: NRP2a_scan 5 peptide (biotinylated) (human, also: biotin-conjugated, site not given here)
T9 peptide: EDEIDDEYEVDW

T10: NRP2a_scan 4 peptide (biotinylated) (human, also: biotin-conjugated, site not given here)
T10 peptide: EGYEDEIDDEYE

T11: Mid-NRP2A peptide (biotinylated) (human, biotin-conjugated, site not stated)
T11 peptide: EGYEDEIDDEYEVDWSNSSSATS

T12: NRP2a_scan 3 peptide (biotinylated) (human, also: biotin-conjugated, site not given here)
T12 peptide: HEREGYEDEIDD

T13: NRP2a_scan 1 peptide (biotinylated) (human, also: biotin-conjugated, site not given here)
T13 peptide: VDIPEIHEREGY


Assays:
[1] = target: T1, CCR7, full coding sequence, in …; experiment: NanoBiT split-luciferase complementation of tagged NRP2 and CCR7 in Expi293F cells; normalized to wells without ligand
Description: The vectors were then transfected into Expi293F cells by Expifectamine transfection reagent (Fisher Scientific) at 1 ug per mL at a density of 1 million cells per mL. Approximately 16-20 hours post transfection, cells were washed, plated at 100,000 cells/well in luminometer plates, and then cell permeable luciferase substrate was added and luminescence was monitored on a GloMax96 (Promega) until stabilization of luminescent signal was achieved.

[2] = target: T14, Human NRP2a v2 (926aa) in pBiT2.1-C with C-terminal split NanoLuc tag, expressed in Expi293 cells (human, UniProt O60462 23-931); experiment: CCL21-induced NRP2a/CCR7 receptor dimerization (NanoBiT, Example 7); mark beside the epitope box
T14 construct: cDNA Origene RCC220706, isoform 2; also called pBiT2.1-C-NRP2v2 (isoform 2); NRP2 v2; not shown: vector-encoded spacer and small split NanoLuc fragment (pBiT2.1-C)

[3] = target: T2, human NRP2b expressed on Expi293F cells; experiment: flow cytometry, Expi293F cells transfected with the target, fluorescent anti-mouse secondary; MFI signal relative to mock-transfected cells
Description: (§1) Signal to noise was calculated as the staining intensity of transfected cells compared to an un-transfected ‘mock’ population.

[4] = target: T15, mNRP2A peptide (biotinylated) (mouse, biotin-conjugated, site not stated); experiment: BLI, peptide on sensor
T15 construct: also called mouse NRP2 isoform a peptide

[5] = target: T3, NRP2b peptide (biotinylated); experiment: BLI, peptide on sensor
[6] = target: T16, NRP2A peptide (biotinylated) (human, biotin-conjugated, site not stated); experiment: BLI, isoform peptide on sensor, 50 nM antibody
T16 construct: also called NPR2A; NRP2a specific peptide

NRP2v3 = target: T4, NRP2v3; experiment: flow cytometry, Expi293F cells transfected with the target, fluorescent anti-mouse secondary; MFI signal relative to mock-transfected cells
Description: as §1

[7] = target: T5, NRP2a_scan 7 peptide (biotinylated); experiment: BLI, peptide on sensor;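 also: octet RED96e biolayer interferometry with biotin-conjugated NRP2 peptides spanning isoform-specific regions (human and mouse) loaded on biosensors, antibodies applied at 50 nM, association read over 300 s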
Description: (§2) Biolayer interferometry (BLI) experiments were carried out on an Octet RED96e instrument (Sartorius) to further characterize antibody affinities to the NRP2 peptides screened above. Antibodies were epitope mapped using peptides that span the NRP2a isoform specific region; antibodies were also tested for reactivity to an NRP2b isoform specific peptide and cross-reactivity to mNRP2a and mNRP2b peptides (see Table E2 for peptide sequences).
(§3) Antibodies and peptides were diluted in 1×PBS, 0.1% BSA, 0.02% Tween 20, pH 7.4. […] The biosensors were then dipped into 50 nM solutions of each antibody and read for 300s. The biosensors were regenerated in 10 mM glycine, pH 1.5 in between cycles of different antibodies.

[8] = target: T6, NRP2a_scan 2 peptide (biotinylated); experiment: BLI, peptide on sensor;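 also: octet RED96e biolayer interferometry with biotin-conjugated NRP2 peptides spanning isoform-specific regions (human and mouse) loaded on biosensors, antibodies applied at 50 nM, association read over 300 s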
Description: as §2, §3

[9] = target: mNRP2b peptide (biotinylated) (mouse, biotin-conjugated, site not stated); experiment: BLI, peptide on sensor
[10] = target: T7, Mid-mNRP2A peptide (biotinylated); experiment: BLI, peptide on sensor
Description: as §2, §3

[11] = target: T8, NRP2a_scan 6 peptide (biotinylated); experiment: BLI, peptide on sensor;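 also: octet RED96e biolayer interferometry with biotin-conjugated NRP2 peptides spanning isoform-specific regions (human and mouse) loaded on biosensors, antibodies applied at 50 nM, association read over 300 s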
Description: as §2, §3

[12] = target: T9, NRP2a_scan 5 peptide (biotinylated); experiment: BLI, peptide on sensor;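 also: octet RED96e biolayer interferometry with biotin-conjugated NRP2 peptides spanning isoform-specific regions (human and mouse) loaded on biosensors, antibodies applied at 50 nM, association read over 300 s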
Description: as §2, §3

[13] = target: T10, NRP2a_scan 4 peptide (biotinylated); experiment: BLI, peptide on sensor
Description: as §2, §3

[14] = target: T11, Mid-NRP2A peptide (biotinylated); experiment: BLI, peptide on sensor
Description: as §2, §3

[15] = target: T12, NRP2a_scan 3 peptide (biotinylated); experiment: BLI, peptide on sensor
Description: as §2, §3

[16] = target: Short NRP2A peptide (biotinylated) (human, biotin-conjugated, site not stated); experiment: BLI, peptide on sensor, 50 nM antibody
[17] = target: T13, NRP2a_scan 1 peptide (biotinylated); experiment: peptide ELISA
[18] = target: T13, NRP2a_scan 1 peptide (biotinylated); experiment: BLI, peptide on sensor, 50 nM antibody
[19] = target: T6, NRP2a_scan 2 peptide (biotinylated); experiment: BLI, peptide on sensor, 50 nM antibody
[20] = target: T3, NRP2b peptide (biotinylated); experiment: peptide ELISA

Chain of mNRP2b peptide (biotinylated) (mouse, biotin-conjugated, site not stated) (peptide, as listed by the source): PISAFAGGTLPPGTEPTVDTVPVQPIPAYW

blocks receptor dimerization [2] | binding result [3] | binding result [6] | binding result (NRP2v3) | binding result [7] | binding result [9] | binding result [11] | binding result [12] | binding result [13] | binding result [14] | binding result [15] | binding result [16] | Binder | other results
 |  |  |  |  |  |  |  |  |  |  |  | Human NRP2b v5 with C-terminal split NanoLuc tag, expressed in Expi293F cells (receptor, cDNA Origene RC210928, isoform 5; not shown: vector-encoded spacer and split NanoLuc fragment) QPDPPCGGRLNSKDAGYITSPGYPQDYPSHQNCEWIVYAPEPNQKIVLNFNPHFEIEKHDCKYDFIEIRDGDSESADLLGKHCGNIAPPTIISSGSMLYIKFTSDYARQGAGFSLRYEIFKTGSEDCSKNFTSPNGTIESPGFPEKYPHNLDCTFTILAKPKMEIILQFLIFDLEHDPLQVGEGDCKYDWLDIWDGIPHVGPLIGKYCGTKTPSELRSSTGILSLTFHTDMAVAKDGFSARYYLVHQEPLENFQCNVPLGMESGRIANEQISASSTYSDGRWTPQQSRLHGDDNGWTPNLDSNKEYLQVDLRFLTMLTAIATQGAISRETQNGYYVKSYKLEVSTNGEDWMVYRHGKNHKVFQANNDATEVVLNKLHAPLLTRFVRIRPQTWHSGIALRLELFGCRVTDAPCSNMLGMLSGLIADSQISASSTQEYLWSPSAARLVSSRSGWFPRIPQAQPGEEWLQVDLGTPKTVKGVIIQGARGGDSITAVEARAFVRKFKVSYSLNGKDWEYIQDPRTQQPKLFEGNMHYDTPDIRRFDPIPAQYVRVYPERWSPAGIGMRLEVLGCDWTDSKPTVETLGPTVKSEETTTPYPTEEEATECGENCSFEDDKDLQLPSGFNCNFDFLEEPCGWMYDHAKWLRTTWASSSSPNDRTFPDDRNFLRLQSDSQREGQYARLISPPVHLPRSPVCMEFQYQATGGRGVALQVVREASQESKLLWVIREDQGGEWKHGRIILPSYDMEYQIVFEGVIGKGRSGEIAIDDIRISTDVPLENCMEPISAFAGGTLLPGTEPTVDTVPMQPIPAYWYYVMAAGGAVLVLVSVALALVLHYHRFRYAAKKTDHSITYKTSHYTNGAPLAVEPTLTIKLEQDRGSHC | binding result [1]: no binding (tested: 100 nM CCL21 or CCL19 (from the text))
> 50% | no binding | binds | no binding | no binding (tested: 50 nM) | no binding (tested: 50 nM) | no binding (tested: 50 nM) | no binding (tested: 50 nM) | no binding (tested: 50 nM) | no binding (tested: 50 nM) | no binding (tested: 50 nM) | binds | aNRP2-400v2 (antibody, V domains shown, Mouse monoclonal) VH: EVQLQESGAELARPGASVKLSCKASGYTFRSYGISWVKQRTGQGLEWIGEIYPRSGNTYYDENFKGRATLTADKSSSTAFMELRSLTSEDSAVYFCARSSITAVVAIPYYYAMDYWGQGTSVTVSS VL: DIQMTQTTSSLSASLGDRVTISCSASQGISNYLNWYQQKPDGSVKLLIYYTSSLHSGVPSRFSGSGSGTDYSLTISNLEPEDIATYYCQQYSKLPHTFGGGTKLELK | binding result [4]: no binding (tested: 50 nM); binding result [5]: no binding (tested: 50 nM); binding result [8]: no binding (tested: 50 nM); binding result [10]: no binding (tested: 50 nM); binding result [17]: binds
< 50% | no binding | binds | no binding | no binding (tested: 50 nM) | no binding (tested: 50 nM) | no binding (tested: 50 nM) | no binding (tested: 50 nM) | no binding (tested: 50 nM) | no binding (tested: 50 nM) | no binding (tested: 50 nM) | binds | aNRP2-404v2 (antibody, V domains shown, Mouse monoclonal) VH: EVQLQQSGPELVKPGASVKISCKASGYTFTDYNMHWVKQSHGKSLEWIGYIYPYNGDSGYNQRFKSEATLTVDISSSTAYMELRSLTSDDSAVYYCARLGRGYWGQGTTLTVSS VL: not shown | binding result [18]: binds; binding result [19]: binds; binding result [20]: no binding (tested: <3x blank)
